Experimental data reported in the RNAGym collection of RNA variant scans (doi:10.1093/molbev/msab373).

B1: Azoarcus group I ribozyme (parent)
chain: GUGCCUUGCGCCGGGAAACCACGCAAGGGAUGGUGUCAAAUUCGGCGAAACCUAAGCGCCCGCCCGGGCGUAUGGCAACGCCGAGCCAAGCUUCGGCGCCUGCGCCGAUGAAGGUGUAGAGACUAGACGGCACCCACCUAAGGCAAACGCUAUGGUGAAGGCAUAGUCCAGGGAGUGGCGAAAGUCACACAAACCGG

Variants of: B1
Assay: reverse-splicing fitness (ratio to wild type); higher = more active; in vitro selection; Mg2+ level not given
How it was run: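 An in vitro group I ribozyme library with randomized positions was T7-transcribed and gel-purified. In triplicate, 10 pmol RNA in EPPS pH 7.5 was reacted with 50 pmoles of a 30-nt RNA substrate for 1 h at 37 °C across several added MgCl2 levels (1–48 mM), then stopped with EDTA. Products were reverse transcribed from a substrate-complementary primer, PCR-amplified and sequenced (HiSeq 4000). Fitness is a variant's read proportion after selection over that before, normalised to wild type.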

In order of falling reverse-splicing fitness:
1. C82A A120U A145C  0.128
2. C82A A120G A145G C150A C169G U176C  0.0247
3. C82A A120G C169A U176C  0.0236
4. C82A A120G A145G  0.0225
5. C82A A120G A145G C169U U176A  0.022
6. C82A A120G A145U  0.0219
7. C82A A120G C150A C169U U176A  0.0218
8. C82A A120G C150A C169U U176C  0.0215
9. C82A A120G A145G C150U  0.0203
10. C82A A120G A145C  0.0202
11. C82A A120G A145U C169U U176A  0.02
12. C82A A120G A145G C169U U176C  0.0195
13. C82A A120G C169A U176A  0.0187
14. C82A A120G U176C  0.0184
15. C82A A120G A145G C150U C169U U176A  0.0182
16. C82A A120G A145G C150A C169G U176A  0.018
17. C82A A120U A145C C150G  0.0172
18. C82A A120G A145G C150U C169U U176C  0.0172
19. C82A A120G C150A U176C  0.0171
20. C82A A120G C150U C169A U176A  0.0169
21. C82A A120G A145U C169U U176C  0.0169
22. C82A A120C C150U C169U U176A  0.0167
23. C82A A120G C150U C169A U176C  0.0163
24. C82A A120G C150U C169G  0.0157
25. C82A A120G A145U C150A C169G U176C  0.0154
26. C82A A120G A145U C150U C169G U176C  0.0154
27. C82A A120C C150U C169U U176C  0.0147
28. C82A A120G A145U U176C  0.0146
29. C82A A120G U176A  0.0137
30. C82A A120G C150U C169A  0.0136
31. C82A A120G A145U C150A C169G U176A  0.0133
32. C82A A120G A145U U176A  0.0131
33. C82A A120G A145U C150A U176C  0.0131
34. C82A A120G C150A U176A  0.0118
35. C82A A120G A145U C150U C169G U176A  0.0114
36. C82A A120C C150G C169U U176C  0.0113
37. C82A A120G C150U C169U  0.0111
38. C82A A120G A145C U176A  0.011
39. C82A A120G A145U C150A U176A  0.0108
40. C82A A120G A145G C150G C169U  0.0106
41. C82A A120C C150G U176C  0.0106
42. C82A A120G A145G C150A  0.0101
43. C82A A120G A145G C150G C169A  0.01
44. C82A A120G C150G C169U  0.0095
45. C82A A120G A145G C150G C169G  0.00916
46. C82A A120U A145C C150A  0.00898
47. C82A A120G A145G C150G  0.00892
48. C82A A120G A145U C150A C169A  0.00876
49. C82A A120G C150G C169A  0.00866
50. C82A A120G C150A U176G  0.00837
51. C82A A120G C150A C169U U176G  0.00815
52. C82A A120G A145U C150A C169G  0.00799
53. C82A A120G C150G C169G  0.00786
54. C82A A120C C150G C169G U176A  0.00779
55. C82A A120G A145U C150G U176C  0.00721
56. C82A A120C C150G U176A  0.00712
57. C82A A120G A145U C150A C169U  0.0066
58. C82A A120C C150G C169U U176G  0.00629
59. C82A A120G A145U C150G U176A  0.00629
60. C82A A120C C150G C169U U176A  0.00617
61. C82A A120C C150G C169G U176G  0.00605
62. C82A A120C C150G C169G U176C  0.00601
63. C82A A120C C150U C169U U176G  0.00589
64. C82A A120G A145G C150A C169G U176G  0.00523
65. C82A A120G U176G  0.00511
66. C82A A120U A145C C150A U176C  0.0051
67. C82A A120G A145U C150A U176G  0.00503
68. C82A A120G C150U C169A U176G  0.00471
69. C82A A120G A145G C150U C169U U176G  0.00463
70. C82A A120G A145G C169U U176G  0.0046
71. C82A A120G A145U C150U C169G U176G  0.00454
72. C82A A120U A145C C150A U176A  0.00439
73. C82A A120G A145U U176G  0.00426
74. C82A A120G A145C U176G  0.00396
75. C82A A120G C169A U176G  0.00374
76. C82A A120G A145U C150G U176G  0.00365
77. C82A A120G A145U C150A C169G U176G  0.00358
78. C82A A120C C150G U176G  0.00347
79. C82A A120G A145U C169U U176G  0.00329
80. C82A A120U A145C C150G C169G  0.0026
81. C82A A120U A145C C150G C169A  0.00259
82. C82A A120U A145C C150G C169G U176A  0.00256
83. C82A A120U A145C C150A U176G  0.00246
